Consider seven molecules from paper PMC8156982, “DNA Aptamers against Vaccinia-Related Kinase (VRK) 1 Block Proliferation in MCF7 Breast Cancer Cells”.

Data set [1] addresses T1, VRK1 (vaccinia-related kinase 1), recombinant (UniProt Q99986 1-396).
T1 sequence: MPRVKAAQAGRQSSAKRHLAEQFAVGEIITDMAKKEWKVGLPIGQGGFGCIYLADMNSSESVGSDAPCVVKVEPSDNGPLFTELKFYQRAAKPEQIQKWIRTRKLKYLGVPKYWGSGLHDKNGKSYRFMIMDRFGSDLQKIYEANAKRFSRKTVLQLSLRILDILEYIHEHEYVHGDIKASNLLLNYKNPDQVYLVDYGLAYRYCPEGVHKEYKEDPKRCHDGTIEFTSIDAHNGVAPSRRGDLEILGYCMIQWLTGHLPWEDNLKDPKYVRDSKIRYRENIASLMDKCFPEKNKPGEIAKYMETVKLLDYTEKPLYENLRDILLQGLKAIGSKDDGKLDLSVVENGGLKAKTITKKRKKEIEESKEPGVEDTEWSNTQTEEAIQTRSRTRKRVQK
In words: ELONA; 80 nM; at least twice control; 10 mM sodium phosphate, 0.15 M NaCl, pH 7.5, 1 mM MgCl2, 0.2% BSA; 37 C, 1 h; aptamers denatured at 95 C 10 min then ice 10 min; VRK1 coated on plate (20 or 200 ng/well). Particulars: protein: recombinant; tags: 6xHis; label: 5' digoxigenin on both chains; PCR duplex denatured at 95 C and cooled on ice.

For data set [2], the target named is T1, VRK1 (vaccinia-related kinase 1), …. In words: ELONA; 1 mM Mg2+; 10 mM sodium phosphate, 0.15 M NaCl, pH 7.5, 1 mM MgCl2, 0.2% BSA; 37 C, 1 h; aptamers denatured at 95 C 10 min then ice 10 min; VRK1 coated on plate (20 or 200 ng/well). Particulars: protein: recombinant, tags: 6xHis, label: digoxigenin (5' when made with primer F5).
For data set [3] the target is unchanged. The experiment in a line: ELONA; 40 nM PCR-labeled chain; 10 mM sodium phosphate, 0.15 M NaCl, pH 7.5, 1 mM MgCl2, 0.2% BSA; 37 C, 1 h; aptamers denatured at 95 C 10 min then ice 10 min; VRK1 coated on plate (20 or 200 ng/well). Particulars: protein: recombinant; tags: 6xHis; label: digoxigenin (5' when made with primer R5); no G-quadruplex (predicted).
Setting [4] is: possible two G-quadruplexes (predicted).

B1: apVRK33 (F+R chains) (mixed)
DNA 1: ACGCTCGGATGCCACTACAGGTTGCGAGGTGGGGGGTGGGTAGGGTGGGAAGTGCCCTCATGGACGTGCTGGTGA
DNA 2: TCACCAGCACGTCCATGAGGGCACTTCCCACCCTACCCACCCCCCACCTCGCAACCTGTAGTGGCATCCGAGCGT
In the case of B1, the binding signal in data set [1] was over 2 fold over control.

B2: apVRKF33 (V#F33) (ssDNA)
DNA: ACGCTCGGATGCCACTACAGGTTGCGAGGTGGGGGGTGGGTAGGGTGGGAAGTGCCCTCATGGACGTGCTGGTGA
For B2, in data set [2] (setting [4]), the dissociation constant (Kd) was 129 ± 55.6 nM.

B3: apVRKF28 (V#F28) (ssDNA)
DNA: ACGCTCGGATGCCACTACAGGGACGGCGGATGGGGGCGGTGGGTGGGTTTCTTGCCTCATGGACGTGCTGGTGA
Consider B3, for which the Kd in data set [2] (possible one G-quadruplex (predicted)) was 60.1 ± 7.05 nM.

B4: apVRK28 (F+R chains) (mixed)
DNA 1: ACGCTCGGATGCCACTACAGGGACGGCGGATGGGGGCGGTGGGTGGGTTTCTTGCCTCATGGACGTGCTGGTGA
DNA 2: TCACCAGCACGTCCATGAGGCAAGAAACCCACCCACCGCCCCCATCCGCCGTCCCTGTAGTGGCATCCGAGCGT
Regarding B4, the binding signal in data set [1] is over 2 fold over control.

B5: apVRKF8 (V#F8) (ssDNA)
DNA: ACGCTCGGATGCCACTACAGGGAGGGGGGGGGAAAGTAAGCGGGGGGTCGGCGGCCTCATGGACGTGCTGGTGA
With B5, in data set [2] (setting [4]), the Kd was 45.8 ± 5.01 nM.

B6: apVRK8 (F+R chains) (mixed)
DNA 1: ACGCTCGGATGCCACTACAGGGAGGGGGGGGGAAAGTAAGCGGGGGGTCGGCGGCCTCATGGACGTGCTGGTGA
DNA 2: TCACCAGCACGTCCATGAGGCCGCCGACCCCCCGCTTACTTTCCCCCCCCCTCCCTGTAGTGGCATCCGAGCGT
For the molecule B6, the binding signal in data set [1] was over 2 fold over control.

B7: apVRKR28 (V#R28) (ssDNA)
DNA: TCACCAGCACGTCCATGAGGCAAGAAACCCACCCACCGCCCCCATCCGCCGTCCCTGTAGTGGCATCCGAGCGT
As for B7, the binding result in data set [3] is listed as “binds”.

The term Kd denotes the equilibrium constant for the complex coming apart.
